Results: article PMC4468156, “Essential Role for an M17 Leucine Aminopeptidase in Encystation of Acanthamoeba castellanii” (PLoS ONE, 2015)
Blank lines part the entries; values can stand above or below the molecule they belong to.

Legend:
[1] = target: T1, AcLAPr (recombinant AcLAP, M17 leucine aminopeptidase) (Acanthamoeba castellanii, UniProt A0A060A630); assay: inhibition of Leu-AMC hydrolysis, fluorometric; type: biochemical
T1 construct: gene LAP; pCold TF vector, E. coli BL21 (pKJE7), Ni-NTA; N-terminal His6-trigger factor tag removed with thrombin
T1 sequence (A0A060A630 1-579): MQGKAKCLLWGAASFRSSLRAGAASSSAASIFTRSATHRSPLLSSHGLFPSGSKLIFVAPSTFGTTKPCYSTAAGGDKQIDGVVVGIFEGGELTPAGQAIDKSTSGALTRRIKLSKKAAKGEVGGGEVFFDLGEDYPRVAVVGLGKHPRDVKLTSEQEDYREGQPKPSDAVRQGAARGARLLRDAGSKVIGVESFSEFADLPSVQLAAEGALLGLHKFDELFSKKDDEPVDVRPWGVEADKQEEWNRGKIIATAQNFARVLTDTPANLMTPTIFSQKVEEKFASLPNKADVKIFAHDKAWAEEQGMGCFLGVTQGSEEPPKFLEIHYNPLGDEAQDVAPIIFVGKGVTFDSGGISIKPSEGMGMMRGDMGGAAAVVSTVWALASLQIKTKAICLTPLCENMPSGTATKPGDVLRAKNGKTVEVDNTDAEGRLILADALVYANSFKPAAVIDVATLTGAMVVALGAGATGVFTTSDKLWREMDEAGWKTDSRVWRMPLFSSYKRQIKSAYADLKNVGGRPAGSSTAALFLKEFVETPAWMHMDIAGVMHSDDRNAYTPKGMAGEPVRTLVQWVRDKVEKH
From the text: inhibition of Leu-AMC hydrolysis, fluorometric on AcLAPr (recombinant AcLAP, M17 leucine aminopeptidase)

purified protein [2] = substrate: Cc1cc(=O)oc2cc(NC(=O)[C@@H](N)CC(C)C)ccc12; assay: purified protein; type: biochemical, Acanthamoeba castellanii; settings: 50 mM Tris-HCl, 1 mM MnCl2, pH 8.0, 37°C, 25 nM enzyme
purified protein [3] = substrate: CSCC[C@H](N)C(=O)Nc1ccc2c(C)cc(=O)oc2c1; assay: purified protein; type: biochemical, Acanthamoeba castellanii; settings: 50 mM Tris-HCl, 1 mM MnCl2, pH 8.0, 37°C, 25 nM enzyme
purified protein [4] = substrate: Cc1cc(=O)oc2cc(NC(=O)[C@@H](N)CCCNC(=N)N)ccc12; assay: purified protein; type: biochemical, Acanthamoeba castellanii; settings: 50 mM Tris-HCl, 1 mM MnCl2, pH 8.0, 37°C, 25 nM enzyme

activity at 10 µM [1]: 22.5 ± 1.13%
Molecule: CC(C)C[C@H](NC(=O)[C@@H](O)[C@H](N)Cc1ccccc1)C(=O)O [bestatin]

B1: AcLAPr (recombinant AcLAP, M17 leucine aminopeptidase) (Acanthamoeba castellanii) (protein)
chain: T1 sequence (A0A060A630 1-579)
notes: pCold TF vector, E. coli BL21 (pKJE7), Ni-NTA; N-terminal His6-trigger factor tag removed with thrombin
Km (purified protein [2]): 13.51 ± 1.31 µM
Km (purified protein [3]): 3.77 ± 0.46 µM
Km (purified protein [4]): 41.37 ± 0.05 µM
